pKd: −log10 of the molar value.

For this test, the target named is SpnA (S. pyogenes nuclease A), recombinant, residues Val25 to Leu876 (S. pyogenes) (UniProt Q9A0J7). Description: SPR; Biacore T100; SpnA immobilized on a CM5 chip by amino coupling (7247 resonance units); IdeS injected at 10, 20, 40, 80 and 160 μM, 10 μl/min; 100 mM Hepes, 150 mM NaCl, 0.05% surfactant P20, pH 7.4; 1:1 Langmuir binding model. Background: SPR reads the build-up and loss of mass on a sensor chip optically.

Consider “IdeS (immunoglobulin G-degrading enzyme of Streptococcus pyogenes) (from UniProt Q7DAM2 1-339)”, for which the pKd (usually the Kd on a negative log10 scale, so that one unit is a factor of ten) was 4.27.

For the origin of these results see PMC10654033.
